Assay results taken from US20250250357A1 (NANJING ZAIMING PHARMACEUTICAL, published 2025).
Blank lines part the entries; values can stand above or below the binder they belong to.

Columns and labels:
[1] = target: T1, human MSLN-R3-his protein (human, UniProt Q13421 487-598); test: ELISA on coated antigen, no antibody (column none)
T1 construct: Self-made in HEK293E cells; also called human MSLN-R3 protein; hMSLN-R3-his; not shown: His tag

[2] = target: T2, human MSLN-R2-his protein (human, UniProt Q13421 391-486); test: ELISA on coated antigen, antibody 0.1 nM
T2 construct: Self-made in HEK293E cells; also called human MSLN-R2 protein; hMSLN-R2-his; not shown: His tag

[3] = target: T3, human MSLN-R3-3 polypeptide (human); test: ELISA on coated antigen, antibody 10 nM
T3 construct: also called human MSLN-R3-3 protein; hMSLN-R3-3
Description: (§1) The plate was sealed with a plastic film and incubated at 4° C. overnight. The next day, the plate was washed twice with PBST, and a blocking buffer [PBS+2% (w/w) BSA] was added for blocking at room temperature for 2 h. The blocking buffer was discarded, and a chimeric antibody or negative control antibody serially diluted from 100 nM was added at 50 μL/well. After incubation at 37° C. for 2 h, the plate was washed 3 times with PBST. […] After incubation at 37° C. for 2 h, the plate was washed 5 times with PBST. A TMB substrate was added at 50 μL/well for incubation at room temperature for 5-10 min, and then a stop solution (1.0 N HCl) was added at 50 μL/well.

[4] = target: T1, human MSLN-R3-his protein; test: ELISA on coated antigen, antibody 100 nM
Description: as §1

[5] = target: T2, human MSLN-R2-his protein; test: ELISA on coated antigen, antibody 0.001 nM
Description: as §1

[6] = target: T1, human MSLN-R3-his protein; test: ELISA on coated antigen, antibody 10 nM
Description: as §1

[7] = target: T1, human MSLN-R3-his protein; test: ELISA on coated antigen, antibody 0.1 nM
Description: as §1

[8] = target: T1, human MSLN-R3-his protein; test: ELISA on coated antigen, antibody 0.01 nM
Description: as §1

[9] = target: T3, human MSLN-R3-3 polypeptide; test: ELISA on coated antigen, antibody 0.01 nM
Description: as §1

[10] = target: T2, human MSLN-R2-his protein; test: ELISA on coated antigen, antibody 1 nM
Description: as §1

[11] = target: T3, human MSLN-R3-3 polypeptide; test: ELISA on coated antigen, antibody 0.0001 nM
Description: as §1

[12] = target: T2, human MSLN-R2-his protein; test: ELISA on coated antigen, no antibody (column none)
Description: as §1

[13] = target: T2, human MSLN-R2-his protein; test: ELISA on coated antigen, antibody 0.0001 nM
Description: as §1

[14] = target: T1, human MSLN-R3-his protein; test: ELISA on coated antigen, antibody 0.001 nM
Description: as §1

[15] = target: T2, human MSLN-R2-his protein; test: ELISA on coated antigen, antibody 100 nM
Description: as §1

[16] = target: T1, human MSLN-R3-his protein; test: ELISA on coated antigen, antibody 1 nM
Description: as §1

[17] = target: T2, human MSLN-R2-his protein; test: ELISA on coated antigen, antibody 0.01 nM
Description: as §1

[18] = target: T3, human MSLN-R3-3 polypeptide; test: ELISA on coated antigen, antibody 1 nM
Description: as §1

[19] = target: T2, human MSLN-R2-his protein; test: ELISA on coated antigen, antibody 10 nM
Description: as §1

[20] = target: T3, human MSLN-R3-3 polypeptide; test: ELISA on coated antigen, antibody 0.001 nM
Description: as §1

[21] = target: T3, human MSLN-R3-3 polypeptide; test: ELISA on coated antigen, no antibody (column none)
Description: as §1

[22] = target: T3, human MSLN-R3-3 polypeptide; test: ELISA on coated antigen, antibody 0.1 nM
Description: as §1

[23] = target: T1, human MSLN-R3-his protein; test: ELISA on coated antigen, antibody 0.0001 nM
Description: as §1

[24] = target: T3, human MSLN-R3-3 polypeptide; test: ELISA on coated antigen, antibody 100 nM
Description: as §1

[25] = target: T4, human MSLN-FL-his protein (human, UniProt Q13421 296-580); test: competitive ELISA; row F8-27.1
T4 construct: made in HEK293E cells, purified on nickel column; also called hMSLN-FL-his; human MSLN full-length protein; not shown: His tag

[26] = target: T4, human MSLN-FL-his protein; test: competitive ELISA; row F8-19.21
Description: (§2) In order to identify antigen-binding sites of antibodies, MSLN chimeric antibodies were grouped using competitive ELISA.
(§3) The chimeric antibodies were diluted to 2 μg/mL with PBS and allowed to coat 96-well high-adsorption ELISA plates at 50 μL/well. After the plates were coated at 4° C. overnight, 250 μL of a blocking buffer (PBS containing 2% (w/w) BSA) was added for two hours of blocking at room temperature. 40 μg/mL of the antibodies to be tested were added, and then the human MSLN-FL-His protein with an EC₈₀ concentration corresponding to each of the antibodies to be tested was added for incubation for 2 h. The plates were washed 5 times with PBS, an HRP-labeled anti-His secondary antibody (purchased from Genescript, Cat. No. A00612) was then added for incubation for 1 h, and the plates were washed 5 times again. A TMB substrate was added at 50 μL/well, and after 10 minutes of incubation at room temperature, a stop solution (1.0 M HCl) was added at 50 μL/well. OD₄₅₀ nm values were read using an ELISA plate reader (Insight, purchased from PerkinElmer), and the competition rate between the antibodies was calculated according to the OD₄₅₀ nm values using a formula.

[27] = target: T4, human MSLN-FL-his protein; test: competitive ELISA; row F8-7.5
Description: as §2, §3

[28] = target: T4, human MSLN-FL-his protein; test: competitive ELISA; row F8-5.15
Description: as §2, §3

[29] = target: T5, human MSLN protein endogenously expressed on OVCAR3 tumor cells (human, UniProt Q13421 296-598); test: FACS on OVCAR3 cells;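 also: flow cytometry of chimeric antibody binding to OVCAR3 cells, 2 h on ice, read as cellular mean fluorescence intensity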
T5 construct: whole, on cells; endogenous expression on a tumor cell line; also called human mesothelin
Description: (§4) The desired cells were expanded to the logarithmic growth phase in a T-75 cell culture flask. […] After the cells from the previous step were subjected to cell counting, the cell pellet was resuspended to 2×10⁶ cells/mL in a blocking buffer of [PBS+2% (w/w) BSA] and added into a 96-well FACS reaction plate at 50 μL/well. A chimeric antibody (a sample to be tested) was added at 50 μL/well, and the plate was incubated on ice for 2 h. […] After the plate was centrifuged and washed 5 times with a PBST buffer, assay and analysis were performed by FACS (FACS CantoII, purchased from BD). Data analysis was performed by software (Flowjo) to obtain the mean fluorescence intensity (MFI) of the cells.

[30] = target: T4, human MSLN-FL-his protein; test: SPR (Biacore), antibody captured on Protein A chip;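 also: flow cell at 25 °C, antigen injected for 240 s at five concentrations from 200 nM downward, dissociation followed up to 600 s, double-referenced, fitted with Langmuir 1:1 model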
Description: The flow cell was set at 25° C. The sample block was set at 16° C. Both were pretreated with the running buffer. In each cycle, first, the antibody to be tested was captured using the Protein A chip, and then a single concentration of human MSLN-FL-his protein was injected. […] The association was determined by injecting different concentrations of human MSLN-FL-his in solution for 240 s on end, wherein the flow rate was 30 μL/min, and the protein was diluted in a 1:1 dilution ratio from 200 nM (see detailed results for actual concentrations tested) to obtain 5 concentrations in total. The dissociation phase was monitored for up to 600 s and triggered by switching from the sample solution to the running buffer. The surface was regenerated by washing with 10 mM glycine solution (pH 1.5) at a flow rate of 30 μL/min for 30 s. The difference in bulk refractive index was corrected by subtracting the responses obtained from the goat anti-human Fc surface. Blank injections were also subtracted (=double reference). To calculate the apparent KD and other kinetic parameters, the Langmuir 1:1 model was used.

[31] = target: T6, human MSLN-R3 protein expressed on HEK293T cells (HEK293T-hMSLN-R3) (human, UniProt Q13421 487-606); test: FACS on HEK293T-hMSLN-R3 cells;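 also: chimeric antibodies incubated with cells on ice for 2 h, binding read by flow cytometry as mean fluorescence intensity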
T6 construct: C-terminal limit uncertain
Description: as §4

[32] = target: T4, human MSLN-FL-his protein; test: competitive ELISA; row Tab021
Description: as §2, §3

[33] = target: T4, human MSLN-FL-his protein; test: competitive ELISA; row F8-18.9
Description: as §2, §3

[34] = target: T4, human MSLN-FL-his protein; test: competitive ELISA; row F8-15.19
Description: as §2, §3

[35] = target: T4, human MSLN-FL-his protein; test: competitive ELISA; row F8-31.22
Description: as §2, §3

[36] = target: T4, human MSLN-FL-his protein; test: competitive ELISA; row Tab142
Description: as §2, §3

[37] = target: T4, human MSLN-FL-his protein; test: competitive ELISA; row F8-13.8
Description: as §2, §3

[38] = target: T4, human MSLN-FL-his protein; test: competitive ELISA; row F8-12.13
Description: as §2, §3

[39] = target: T4, human MSLN-FL-his protein; test: competitive ELISA; row F8-4.5
Description: as §2, §3

T4 sequence (Q13421 other isoform, or with tags, fused parts or gaps): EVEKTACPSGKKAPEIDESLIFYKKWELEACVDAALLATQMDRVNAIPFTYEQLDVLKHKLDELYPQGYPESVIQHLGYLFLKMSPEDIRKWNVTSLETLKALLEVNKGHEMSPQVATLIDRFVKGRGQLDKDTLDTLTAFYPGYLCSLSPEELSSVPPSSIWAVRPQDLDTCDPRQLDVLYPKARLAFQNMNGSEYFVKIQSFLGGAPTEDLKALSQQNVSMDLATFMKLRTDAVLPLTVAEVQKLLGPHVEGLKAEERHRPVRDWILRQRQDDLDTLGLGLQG
T6 sequence (Q13421 495-614): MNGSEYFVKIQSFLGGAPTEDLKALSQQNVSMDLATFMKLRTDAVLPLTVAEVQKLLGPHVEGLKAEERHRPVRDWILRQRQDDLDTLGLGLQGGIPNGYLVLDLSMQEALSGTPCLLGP
T2 sequence (Q13421 other isoform, or with tags, fused parts or gaps): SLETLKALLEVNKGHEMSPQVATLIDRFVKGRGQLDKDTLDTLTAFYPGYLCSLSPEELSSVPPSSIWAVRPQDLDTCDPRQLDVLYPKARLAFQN
T5 sequence (Q13421 other isoform, or with tags, fused parts or gaps): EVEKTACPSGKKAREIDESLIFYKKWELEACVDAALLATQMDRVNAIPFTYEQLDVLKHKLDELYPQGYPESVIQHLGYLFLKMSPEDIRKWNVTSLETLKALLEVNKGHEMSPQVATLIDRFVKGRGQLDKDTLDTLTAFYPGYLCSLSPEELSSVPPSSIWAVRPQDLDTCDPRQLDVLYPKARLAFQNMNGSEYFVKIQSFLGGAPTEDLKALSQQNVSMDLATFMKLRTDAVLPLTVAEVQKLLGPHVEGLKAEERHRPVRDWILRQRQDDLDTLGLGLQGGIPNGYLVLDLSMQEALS
T1 sequence (Q13421 495-606): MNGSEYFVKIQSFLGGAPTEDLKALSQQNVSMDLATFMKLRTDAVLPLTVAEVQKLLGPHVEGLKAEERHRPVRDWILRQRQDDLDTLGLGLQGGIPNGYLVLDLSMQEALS

B1: S009-F2.16.10 (antibody, human IgG1, kappa, V domains shown)
VH: QVQLQQPGAELIKPGASVKLSCKASGYTFTSYWMHWVKQRPGQGLEWIGIIHPNIGSTNYNERFKSKATLTVDKSSSTAYMQLSSLTSEDSAVYYCARRSSNYGDWYFDVWGTGTTVTVSS
VL: DIVMTQSHRFMSTSVGDRVSITCKASQDVGTSVAWYQQKPGQSPKLLIYWASTQHTGVPDRFTGSGSGTDFTLTINNVQSEDLLDYFCQQYSSYPLTFGAGTKLELKR
notes: Human-murine chimeric antibody: murine VH/VL on human IgG1 heavy and kappa light constant regions
- OD450 [1]: 0.06 OD450
- OD450 [2]: 0.05 OD450
- OD450 [3]: 0.05 OD450
- OD450 [4]: 0.06 OD450
- OD450 [5]: 0.05 OD450
- OD450 [6]: 0.05 OD450
- OD450 [7]: 0.05 OD450
- OD450 [8]: 0.05 OD450
- OD450 [9]: 0.05 OD450
- OD450 [10]: 0.05 OD450
- OD450 [11]: 0.05 OD450
- OD450 [12]: 0.06 OD450
- OD450 [13]: 0.05 OD450
- OD450 [14]: 0.05 OD450
- OD450 [15]: 0.05 OD450
- OD450 [16]: 0.05 OD450
- OD450 [17]: 0.05 OD450
- OD450 [18]: 0.05 OD450
- OD450 [19]: 0.05 OD450
- OD450 [20]: 0.05 OD450
- OD450 [21]: 0.05 OD450
- OD450 [22]: 0.05 OD450
- OD450 [23]: 0.05 OD450
- OD450 [24]: 0.05 OD450

B5: S009-F2.13.3 (antibody, human IgG1, kappa, V domains shown)
VH: QVQLQQSGAELMKPGASVKLSCKATGYTFTGYWIEWVKQRPGHGLEWIGEILPGSGSTNYNEKFKGKATFTADTSSNTAYMQLSSLTTEDSAIYYCARAGAWFAYWGQGTLVTVSA
VL: QIVLTQSPAIMSASLGERVTMTCTASSSVSSSYLHWYQQKPGSSPKLWTYSTSNLASGVPARFSGSGSGTSYSLTISSMEAEDAATYYCHQYHRSPWTFGGGTKLEIKR
notes: as for B1
- OD450 [1]: 0.06 OD450
- OD450 [2]: 0.05 OD450
- OD450 [3]: 0.07 OD450
- OD450 [4]: 0.06 OD450
- OD450 [5]: 0.05 OD450
- OD450 [6]: 0.06 OD450
- OD450 [7]: 0.05 OD450
- OD450 [8]: 0.05 OD450
- OD450 [9]: 0.05 OD450
- OD450 [10]: 0.05 OD450
- OD450 [11]: 0.05 OD450
- OD450 [12]: 0.06 OD450
- OD450 [13]: 0.06 OD450
- OD450 [14]: 0.06 OD450
- OD450 [15]: 0.07 OD450
- OD450 [16]: 0.05 OD450
- OD450 [17]: 0.05 OD450
- OD450 [18]: 0.05 OD450
- OD450 [19]: 0.06 OD450
- OD450 [20]: 0.05 OD450
- OD450 [21]: 0.05 OD450
- OD450 [22]: 0.05 OD450
- OD450 [23]: 0.05 OD450
- OD450 [24]: 0.06 OD450

Now from value to binder:

- competition rate [25]: 11.7%
- competition rate [26]: 16.3%
- competition rate [27]: 18.1%
- competition rate [28]: 86.5%
- EC50 [29]: 0.64 nM
- Maximum mean fluorescence intensity [29]: 7750
- Kd [30]: 87.6 nM
- koff [30]: 0.0276 s⁻¹
- kon [30]: 315000 M⁻¹ s⁻¹
- Maximum mean fluorescence intensity [31]: 189
- binding result [31]: no binding
- competition rate [32]: 10.3%
- competition rate [33]: 0.11%
- competition rate [34]: 83.2%
- competition rate [35]: 69.3%
- competition rate [36]: 12.9%
- competition rate [37]: 5.21%
- competition rate [38]: 64.8%
- competition rate [39]: -2.53%
B2: S009-F8-31.22 (antibody, human IgG1, kappa, V domains shown)
VH: EVQLVESGGDLVKPGGSLKLSCAASGFTFSTYGMSWVRQTPDKRLEWVATISSGGSYTYYPDSLKGRFTISRDNAKNTLYLQMSSLKSEDTAMYYCARHEGYYYGKDYWGQGTTLTVSS
VL: DIVLTQSPATLSVTPGDSVSLSCRASHSISNNLHWYQQKSHESPRLLIKYASQSISGIPSKFSGSGSGTDFTLSINSVETEDFGMYFCQQTNSWPLTFGAGTKLELKR
notes: human-murine chimeric antibody, human IgG1/kappa constant regions

- competition rate [25]: 39.7%
- competition rate [26]: 25.5%
- competition rate [27]: -148%
- competition rate [28]: 96.8%
- EC50 [29]: 4.08 nM
- Maximum mean fluorescence intensity [29]: 4920
- Kd [30]: 27.4 nM
- koff [30]: 0.017 s⁻¹
- kon [30]: 620000 M⁻¹ s⁻¹
- Maximum mean fluorescence intensity [31]: 98
- binding result [31]: no binding
- competition rate [32]: 1.09%
- competition rate [33]: 8.9%
- competition rate [34]: 82.2%
- competition rate [35]: 79%
- competition rate [36]: 15.3%
- competition rate [37]: 7.5%
- competition rate [38]: 79.2%
- competition rate [39]: 29.6%
B3: S009-F8-5.15 (antibody, human IgG1, kappa, V domains shown)
VH: QVQLQQPGTELVKPGASVKLSCKASGYTFTSYWMHWVKQRPGQGLEWIGHSNPSNGGTNYNEKFKSKATLTVDKSSSTAYMQLSSLTSEDSAVYYCARWVRGSNYEYFDVWGTGTTVTVSS
VL: DIVMTQSQKFMSTTVGDRVSIICKASQNVGSAVAWCQQKPGQSPKLLIYSASNRYTGVPDRFTGSGSGTDFTLTISNMQSEDLADYFCQQYSSYPLTFAGGTKLEIKR
notes: as for B2

- OD450 [1]: 0.06 OD450
- OD450 [2]: 0.05 OD450
- OD450 [3]: 0.05 OD450
- OD450 [4]: 2.3 OD450
- OD450 [5]: 0.05 OD450
- OD450 [6]: 1.19 OD450
- OD450 [7]: 0.07 OD450
- OD450 [8]: 0.05 OD450
- OD450 [9]: 0.05 OD450
- OD450 [10]: 0.05 OD450
- OD450 [11]: 0.05 OD450
- OD450 [12]: 0.06 OD450
- OD450 [13]: 0.05 OD450
- OD450 [14]: 0.05 OD450
- OD450 [15]: 0.06 OD450
- OD450 [16]: 0.29 OD450
- OD450 [17]: 0.05 OD450
- OD450 [18]: 0.05 OD450
- OD450 [19]: 0.05 OD450
- OD450 [20]: 0.05 OD450
- OD450 [21]: 0.05 OD450
- OD450 [22]: 0.05 OD450
- OD450 [23]: 0.05 OD450
- OD450 [24]: 0.05 OD450
B4: S009-F2.17.3 (antibody, human IgG1, kappa, V domains shown)
VH: QVQLQQPGTELVTPGASVKLSCKASGYSFTSYWMHWVKQRPGQGLEWIGNINPSNGDTFYNEKFKNKATLTVDKSSSTAYMQLSSLTSEDSAVYYCARGWLRDYWGQGTTLTVSS
VL: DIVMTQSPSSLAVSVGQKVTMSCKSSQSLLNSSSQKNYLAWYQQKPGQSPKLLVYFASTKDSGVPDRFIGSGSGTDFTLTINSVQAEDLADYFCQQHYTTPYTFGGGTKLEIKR
notes: as for B1
